Article PMC11277097, “MRAP2a Binds and Modulates Activity and Localisation of Prokineticin Receptor 1 in Zebrafish” (International Journal of Molecular Sciences, 2024)

Tests used:
[1] = molecular target: the molecule itself; experiment: SDS-PAGE; purified zCT-MRAP2a, electrophoresis under denaturing conditions
[2] = molecular target: the molecule itself; experiment: native gel or EMSA; blue native PAGE, 20 ug purified CT-MRAP2 domain on Native PAGE Novex 3% to 16% Bis-Tris gels, 0 °C; blot with anti-His

B1: C-terminal domain of zebrafish MRAP2a, His-tagged (zCT-MRAP2a) (domain or fragment, UniProt F8W4H9 73-217, looked up)
chain: EAAEPYEKRMRLTSCADGLGRQRETDGRTGLSRPLLEESRSLFHCYINEEEREGGRAATDAGALTHGRSGIGNSRGQVEEVGLVVQNMVLESRAEREAALLAHFNIPNFVNSELNSALGDEDLLLGDPPIIMEEARPRCTHHIID
notes: zebrafish MRAP2a, C-terminal domain, the region from residue 73 to residue 217 encoded by the third exon; cloned by PCR from plasmid XM_021473026.1 into pet28; also called zCT-MRAP2a domain; pet 28zCT-MRAP2; source: E. coli, purified (His-tagged protein purification kit)
stoichiometry N [1]: 2
stoichiometry N [2]: ~2
